In patent publication US20190023741A1:

Legend:
[1] = target: Aβ1-20
[2] = target: T1, Aβ11-29
T1 sequence (peptide): EVHHQKLVFFAEDVGSNKG

Aβ1-20, sequence (peptide, as listed by the source): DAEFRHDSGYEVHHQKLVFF

hydrolysis activity: remaining HPLC peak of the substrate [1]: 49.6% | hydrolysis activity: remaining HPLC peak of the substrate [2]: 72%
Binder: SKGQA [ANA-SA5]
